Test results reported in the supplement of paper PMC7125110.
± gives the standard error. For some assays here: Fewer inactive variants are shown than the library holds.

B1: glmS ribozyme (parent)
chain: AUAAAAGCGCCAGAACUACAGAAAUGUAGUUGACGAGGAGGAGGUUUAUCGAAUUUUCGGCGGAUGCCUCCAAA

Legend:
Settings in all cases: with glucosamine-6-phosphate
glucosamine-6-phosphate [1] = variants of: B1; test: kcat; higher = faster cleavage; RNA array
Method in brief: (§1)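 Barcoded glmS ribozyme variants on sequenced MiSeq chips were transcribed in situ by E. coli RNA polymerase and tracked through a hybridised Cy3 probe at 37 °C. Glucosamine-6-phosphate (40 μM to 10 mM) in HEPES/KCl/Mg(OAc)2 buffer was flowed in, and tiles were imaged over ~14 h. Signals were normalised to baseline and to non-cleaving reference variants; per-tile medians were fit to one- or two-exponential decays to give kobs. kcat and KM came from weighted Michaelis–Menten fits across concentrations.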

glucosamine-6-phosphate [2] = variants of: B1; test: KM; higher = weaker cofactor use; RNA array
Method in brief: as §1

glucosamine-6-phosphate [3] = variants of: B1; test: self-cleavage kobs at 40 uM GlcN6P; higher = faster cleavage; RNA array
Method in brief: as §1

glucosamine-6-phosphate [4] = variants of: B1; test: self-cleavage kobs at 10000 uM GlcN6P; higher = faster cleavage; RNA array
Method in brief: as §1

glucosamine-6-phosphate [5] = variants of: B1; test: self-cleavage kobs at 640 uM GlcN6P; higher = faster cleavage; RNA array
Method in brief: as §1

glucosamine-6-phosphate [6] = variants of: B1; test: self-cleavage kobs at 2500 uM GlcN6P; higher = faster cleavage; RNA array
Method in brief: as §1

glucosamine-6-phosphate [7] = variants of: B1; test: self-cleavage kobs at 160 uM GlcN6P; higher = faster cleavage; RNA array
Method in brief: as §1

Variant | kcat (glucosamine-6-phosphate [1]) | KM (glucosamine-6-phosphate [2]) | self-cleavage kobs at 40 uM GlcN6P (glucosamine-6-phosphate [3]) | self-cleavage kobs at 10000 uM GlcN6P (glucosamine-6-phosphate [4]) | self-cleavage kobs at 640 uM GlcN6P (glucosamine-6-phosphate [5]) | self-cleavage kobs at 2500 uM GlcN6P (glucosamine-6-phosphate [6]) | self-cleavage kobs at 160 uM GlcN6P (glucosamine-6-phosphate [7])
G13C U56C | 2.35e-05 ± 6.9e-08 s⁻¹ | 1100 ± 19 µM | < 1e-05 s⁻¹ | 2.11e-05 ± 8e-06 s⁻¹ | – | – | –
A14C C16G | 8.6e-05 ± 5.5e-06 s⁻¹ | 438 ± 180 µM | – | 7.9e-05 ± 6.9e-06 s⁻¹ | 4.86e-05 ± 1.2e-05 s⁻¹ | 8.11e-05 ± 8.9e-06 s⁻¹ | –
G13U G32A | 0.00326 ± 0.00047 s⁻¹ | 3530 ± 710 µM | 4.41e-05 ± 7.3e-06 s⁻¹ | 0.00258 ± 0.00026 s⁻¹ | 0.000465 ± 5e-05 s⁻¹ | 0.00124 ± 0.00013 s⁻¹ | 0.000153 ± 1.8e-05 s⁻¹
G13U G32C | 0.000465 ± 0.00015 s⁻¹ | – | – | 0.000328 ± 2.8e-05 s⁻¹ | 7.27e-05 ± 1e-05 s⁻¹ | 0.000121 ± 1.6e-05 s⁻¹ | –
A14G C67G | 0.00362 ± 0.00046 s⁻¹ | 1530 ± 280 µM | 9.34e-05 ± 8.5e-06 s⁻¹ | 0.00339 ± 0.0003 s⁻¹ | 0.00104 ± 0.00011 s⁻¹ | 0.00164 ± 0.00033 s⁻¹ | 0.000388 ± 6e-05 s⁻¹
A14C A52G U57G | 0.000174 ± 4.6e-05 s⁻¹ | – | – | 0.000182 ± 3.1e-05 s⁻¹ | 8.13e-05 ± 1.9e-05 s⁻¹ | 8.49e-05 ± 2.9e-05 s⁻¹ | –
A14G G32A | 0.0158 ± 0.0015 s⁻¹ | 2500 ± 310 µM | 0.000266 ± 3.1e-05 s⁻¹ | 0.0136 ± 0.0018 s⁻¹ | 0.00305 ± 0.0005 s⁻¹ | 0.00726 ± 0.0011 s⁻¹ | 0.000935 ± 0.00013 s⁻¹
A14C G44U | 4.6e-05 ± 8.4e-06 s⁻¹ | – | < 1e-05 s⁻¹ | 3.91e-05 ± 9.8e-06 s⁻¹ | – | 3.7e-05 ± 1.4e-05 s⁻¹ | –
G13U U46A | 3.16e-05 ± 1.5e-06 s⁻¹ | 479 ± 200 µM | – | 2.96e-05 ± 9.4e-06 s⁻¹ | – | 2.81e-05 ± 1.2e-05 s⁻¹ | –
G13U U56G | 0.000921 ± 0.00016 s⁻¹ | 2720 ± 820 µM | – | 0.000774 ± 9.3e-05 s⁻¹ | 0.000172 ± 2.5e-05 s⁻¹ | 0.000372 ± 6.6e-05 s⁻¹ | 7.12e-05 ± 2e-05 s⁻¹
A14C G32U | 0.0014 ± 6.9e-05 s⁻¹ | 3610 ± 300 µM | – | 0.00103 ± 0.00012 s⁻¹ | 0.000206 ± 3e-05 s⁻¹ | 0.000576 ± 7.9e-05 s⁻¹ | 6.08e-05 ± 2.1e-05 s⁻¹
A14C U65A | 0.000588 ± 2.2e-05 s⁻¹ | 3100 ± 210 µM | – | 0.000453 ± 5.4e-05 s⁻¹ | 0.000103 ± 1.5e-05 s⁻¹ | 0.000248 ± 5e-05 s⁻¹ | –
G13U A15C U54C | 0.000132 ± 1.2e-05 s⁻¹ | – | – | 0.000122 ± 1.9e-05 s⁻¹ | – | 0.00013 ± 3.3e-05 s⁻¹ | –
A14G A42U | 0.000931 ± 0.00011 s⁻¹ | 3180 ± 600 µM | – | 0.000738 ± 9.3e-05 s⁻¹ | 0.000152 ± 2.5e-05 s⁻¹ | 0.000357 ± 7e-05 s⁻¹ | 5.25e-05 ± 1.1e-05 s⁻¹
G13C U69A | 2.51e-05 ± 9.3e-06 s⁻¹ | – | – | – | 4.85e-05 ± 2.3e-05 s⁻¹ | – | –
